± gives the uncertainty stated by the source.
Assay: self-splicing fitness, log relative to wild type (ln ratio); higher = more splicing; Tetrahymena group I intron in knt gene, E. coli kanamycin selection, DiMSum; sequences stand for … in CUCUCU…GGAGGGAAAAGUUAUCAGGCAUGCACCUGGUAGCUAGUCUUUAAACCAAUAGAUUGCAUCGGUUUAAAAGGCAAGACCGUCAAAUUGCGGGAAAGGGGUCAACAGCCGUUCAGUACCAAGUCUCAGGGGAAACUUUGAGAUGGCCUUGCAAAGGGUAUGGUAAUAAGCUGACGGACAUGGUCCUAACCACGCAGCCAAGUCCUAAGUCAACAGAUCUUCUGUUGAUAUGGAUGCAGUUCACAGACUAAAUGUCGGUCGGGGAAGAUGUAUUCUUCUCAUAAGAUAUAGUCGGACCUCUCCUUAAUGGGAGCUAGCGGAUGAAGUGAUGCAACACUGGAGCCGCUGGGAACUAAUUUGUAUGCGAAAGUAUAUUGAUUAGUUUUGGAGUACUCGUGGUCG
How it was run: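 A randomised library covering all eight P1ex-region intron nucleotides was built with the intron in the knt kanamycin-resistance gene on pET-22b(+) and held in E. coli BL21(DE3). Cells were grown overnight at 37°C or 30°C on LB agar, with or without 25 μg/mL kanamycin, plus 100 μg/mL carbenicillin, 50 μM IPTG and 0.2% rhamnose, and pooled colonies were amplicon-sequenced on an Illumina HiSeq 2500. DiMSum fitness is the error-weighted combination of wild-type-normalised replicate fold changes, kanamycin versus none.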

Sequence | self-splicing fitness (ln) (30 °C) | self-splicing fitness (ln) (37 °C)
CAGGAGCAAUAUUACGCAAG | -2.98 ± 0.35 | -1.06 ± 0.27
CCGGAGCAAUAUUACGGUGC | – | -1.63 ± 0.45
GGUCAGCAAUAUUACGUGAG | 0.0154 ± 0.061 | 0.241 ± 0.085
UGGGAGCAAUAUUACGGCCA | -1.58 ± 0.13 | -0.684 ± 0.16
AUCAAGCAAUAUUACGACCU | -0.924 ± 0.11 | -0.336 ± 0.1
ACGUAGCAAUAUUACGUUCU | -2.3 ± 0.097 | -0.807 ± 0.076
GCUCAGCAAUAUUACGCCCA | -1.99 ± 0.25 | -1.09 ± 0.23
CGAUAGCAAUAUUACGACUA | -1.8 ± 0.26 | -2.13 ± 0.23
GUGUAGCAAUAUUACGUCGG | -2.7 ± 0.24 | -2.73 ± 0.33
AUUCAGCAAUAUUACGCGGU | -3 ± 0.14 | -2.21 ± 0.15
UCUCAGCAAUAUUACGGAUG | -2.78 ± 0.12 | -0.753 ± 0.13
GUGAAGCAAUAUUACGCAAG | -0.985 ± 0.09 | 0.0285 ± 0.1
UGCUAGCAAUAUUACGUUAG | -3.08 ± 0.19 | -3.02 ± 0.33
AACAAGCAAUAUUACGAUGA | -0.584 ± 0.072 | -0.801 ± 0.073
CAAUAGCAAUAUUACGCCCG | -0.472 ± 0.17 | -0.0129 ± 0.23
CUUAAGCAAUAUUACGGGGA | -3.46 ± 0.29 | -2.16 ± 0.18
CGCAAGCAAUAUUACGGGCG | -4.43 ± 0.19 | -2.76 ± 0.2
GACAAGCAAUAUUACGUGUC | -4.44 ± 0.28 | -3.22 ± 0.37
AGCCAGCAAUAUUACGCCGU | -2.54 ± 0.12 | -1.76 ± 0.13
UGUUAGCAAUAUUACGCCGA | -1.18 ± 0.17 | -1.21 ± 0.15
GACUAGCAAUAUUACGACUG | -1.64 ± 0.1 | 0.0415 ± 0.13
CGAGAGCAAUAUUACGUAGC | -4.39 ± 0.42 | -2.52 ± 0.27
CACAAGCAAUAUUACGCGGG | -3 ± 0.14 | -0.984 ± 0.12
UGUCAGCAAUAUUACGCUCU | -0.884 ± 0.15 | -0.226 ± 0.13
AACUAGCAAUAUUACGUGAU | -1.71 ± 0.11 | -1.09 ± 0.13
AGUUAGCAAUAUUACGCAGA | -2.06 ± 0.26 | -2.04 ± 0.26

Sequence | self-splicing fitness (ln) (30 °C) | self-splicing fitness (ln) (37 °C)
UCCCAGCAAUAUUACGCGAU | -3.29 ± 0.21 | -2.64 ± 0.21
CCAGAGCAAUAUUACGAUUA | -3.29 ± 0.3 | –
AAGGAGCAAUAUUACGCUGU | -2.59 ± 0.22 | -1.64 ± 0.23
AAUAAGCAAUAUUACGCGUU | -3.75 ± 0.15 | -1.8 ± 0.14
GUUCAGCAAUAUUACGACGU | 0.000808 ± 0.063 | 0.108 ± 0.08
AGGCAGCAAUAUUACGGUUG | -3.28 ± 0.18 | -1.46 ± 0.17
AAAUAGCAAUAUUACGCAGU | -3.79 ± 0.2 | -1.57 ± 0.14
UCUGAGCAAUAUUACGUUGG | -0.956 ± 0.13 | -0.905 ± 0.15
CAAAAGCAAUAUUACGCGCA | -1.05 ± 0.1 | -0.548 ± 0.1
ACUGAGCAAUAUUACGUCAG | -2.94 ± 0.2 | -2.21 ± 0.19
AUUAAGCAAUAUUACGCCAU | -1.86 ± 0.2 | -1.52 ± 0.15
ACCUAGCAAUAUUACGUACC | -1.59 ± 0.099 | -0.156 ± 0.11
CGUUAGCAAUAUUACGGCGA | -1.6 ± 0.11 | -1.61 ± 0.11
UAGAAGCAAUAUUACGUGGC | -3.12 ± 0.21 | -3.09 ± 0.25
GAUUAGCAAUAUUACGACCA | -0.409 ± 0.23 | -0.295 ± 0.34
GUCCAGCAAUAUUACGGCUA | -0.25 ± 0.068 | 0.143 ± 0.073
AUCUAGCAAUAUUACGAUUA | -0.971 ± 0.11 | -0.836 ± 0.11
UCCAAGCAAUAUUACGCUUA | -3.43 ± 0.18 | -1.86 ± 0.11
GCGGAGCAAUAUUACGCGAU | -2.58 ± 0.33 | -2.18 ± 0.36
AAAUAGCAAUAUUACGUACG | -1.1 ± 0.11 | -1.16 ± 0.13
GGAUAGCAAUAUUACGAGGU | -2.75 ± 0.29 | -2.7 ± 0.18
AGGCAGCAAUAUUACGGGCG | -0.287 ± 0.097 | -0.172 ± 0.11
CAACAGCAAUAUUACGUCGG | -0.576 ± 0.052 | -0.369 ± 0.065
GUGGAGCAAUAUUACGUGGG | -2.28 ± 0.13 | -2.7 ± 0.33
UGAUAGCAAUAUUACGGAUA | -3.57 ± 0.25 | -1.6 ± 0.19
AUCGAGCAAUAUUACGCGAC | -1.15 ± 0.22 | -2.55 ± 0.4

Sequence | self-splicing fitness (ln) (30 °C) | self-splicing fitness (ln) (37 °C)
UGGAAGCAAUAUUACGGACC | -0.695 ± 0.088 | -0.372 ± 0.11
GCCGAGCAAUAUUACGCUUG | -3.71 ± 0.23 | -2.78 ± 0.24
GUUGAGCAAUAUUACGAAUA | -1.6 ± 0.16 | -1.44 ± 0.18
GAACAGCAAUAUUACGUUGA | -1.47 ± 0.066 | -1.02 ± 0.077
UUGAAGCAAUAUUACGGCUU | -3.03 ± 0.26 | -2.71 ± 0.3
UCUUAGCAAUAUUACGAGAG | -2.35 ± 0.26 | -0.861 ± 0.16
UGAGAGCAAUAUUACGCUCG | – | -1.32 ± 0.45
GAUCAGCAAUAUUACGAUCA | -0.53 ± 0.13 | -0.636 ± 0.097
CGAGAGCAAUAUUACGAAGC | -3.7 ± 0.28 | -2.02 ± 0.27
GAUUAGCAAUAUUACGCUUA | -1.22 ± 0.13 | -0.752 ± 0.095
AGUGAGCAAUAUUACGUGGU | -3.64 ± 0.22 | -2.18 ± 0.23
GCUGAGCAAUAUUACGGGUA | -1.3 ± 0.091 | -1.15 ± 0.1
CAGCAGCAAUAUUACGAUCU | -3.54 ± 0.35 | -2.38 ± 0.19
UGCUAGCAAUAUUACGUCCG | -0.00657 ± 0.11 | 0.18 ± 0.14
UGUUAGCAAUAUUACGGUCG | -0.217 ± 0.15 | 0.99 ± 0.18
GAUAAGCAAUAUUACGUCCC | -0.291 ± 0.2 | -0.349 ± 0.25
CACCAGCAAUAUUACGAGGG | -2.81 ± 0.088 | -1.79 ± 0.093
CUAGAGCAAUAUUACGACCG | 0.13 ± 0.13 | 0.707 ± 0.18
CUAGAGCAAUAUUACGGGUC | -4.31 ± 0.25 | -3.61 ± 0.39
UUGAAGCAAUAUUACGCACG | -0.255 ± 0.15 | -0.521 ± 0.15
CCCUAGCAAUAUUACGCUUG | -3.94 ± 0.42 | -2.18 ± 0.28
ACUUAGCAAUAUUACGUUCC | -2.16 ± 0.31 | -2.04 ± 0.44
CGUAAGCAAUAUUACGCAGC | – | -2.3 ± 0.39
ACUGAGCAAUAUUACGGGAC | – | -1.43 ± 0.28
GUAUAGCAAUAUUACGCUAU | -3.33 ± 0.33 | -1.23 ± 0.28

From the supplement of paper PMC7877785
